From IntAct's records for PubMed 15530371

Biological target: T1, cdkn3_human CDKN3 (UniProt Q16667)
T1 sequence: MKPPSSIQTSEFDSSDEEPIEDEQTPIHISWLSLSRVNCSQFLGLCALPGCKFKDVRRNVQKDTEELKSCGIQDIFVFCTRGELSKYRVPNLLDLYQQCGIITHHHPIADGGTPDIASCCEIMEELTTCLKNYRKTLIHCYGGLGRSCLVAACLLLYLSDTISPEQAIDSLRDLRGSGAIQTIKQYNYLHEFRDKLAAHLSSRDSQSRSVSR

Cyclin-dependent kinase 2 (Homo sapiens) (from UniProt P24941) K237V
effect of a mutation on the interaction: disrupting interaction
